The numbers were not newly measured in article PMC8296985, “A Covalent Calmodulin Inhibitor as a Tool to Study Cellular Mechanisms of K-Ras-Driven Stemness” (Frontiers in Cell and Developmental Biology, 2021), which cites them from elsewhere.

In data set [1] the target is Calmodulin (Homo sapiens) (UniProt P0DP23). The data set is described as follows: fluorescence polarization. Background: Fluorescence polarisation rises when a labelled molecule tumbles more slowly, as on binding a larger partner.
Data set [2] concerns the target Calmodulin N-terminal lobe (Homo sapiens) (UniProt P0DP23).
Data set [3] concerns the target Calmodulin C-terminal lobe (Homo sapiens) (UniProt P0DP23).

For F-PMCA peptide (from UniProt P20020), the Kd – broadly, a measure of binding affinity in units of concentration – in data set [1] was 6 nM.
Consider K-Ras (from UniProt P01116), for which the Kd in data set [2] was 4000 nM; in data set [3], 500 nM.
